For one molecule, mean residence time, mean pause duration and end duration results are on record in PMC4600729.

The target in assay [1] is dynamic microtubules growing from surface-immobilized GMPCPP seeds (polymer of alpha/beta-tubulin). The assay is described as follows: TIRF microscopy; GFP-labelled motors (20-30 nM, or 50 pM for single molecules) on microtubules growing from immobilized GMPCPP seeds in 10 or 20 μM unlabelled tubulin, 1 mM ATP.
Assay [2] addresses T1, taxol-stabilized microtubules (polymer of alpha/beta-tubulin), immobilized. Put plainly: single-molecule TIRF microscopy; GFP-labelled motor (25 pM) in 1 mM ATP on immobilized taxol-stabilized microtubules; pause lifetimes at plus ends, exponential fit; BRB80 pH 6.8.
Assay [3] addresses T1, taxol-stabilized microtubules (polymer …). The assay is described as follows: single-molecule TIRF microscopy; spiking experiment, crowded conditions: pM GFP-labelled motor mixed with 15-25 nM unlabelled motor; binding durations at plus ends of taxol-stabilized microtubules.

T1 sequence (P68363 whole entry, chain 1 of 2): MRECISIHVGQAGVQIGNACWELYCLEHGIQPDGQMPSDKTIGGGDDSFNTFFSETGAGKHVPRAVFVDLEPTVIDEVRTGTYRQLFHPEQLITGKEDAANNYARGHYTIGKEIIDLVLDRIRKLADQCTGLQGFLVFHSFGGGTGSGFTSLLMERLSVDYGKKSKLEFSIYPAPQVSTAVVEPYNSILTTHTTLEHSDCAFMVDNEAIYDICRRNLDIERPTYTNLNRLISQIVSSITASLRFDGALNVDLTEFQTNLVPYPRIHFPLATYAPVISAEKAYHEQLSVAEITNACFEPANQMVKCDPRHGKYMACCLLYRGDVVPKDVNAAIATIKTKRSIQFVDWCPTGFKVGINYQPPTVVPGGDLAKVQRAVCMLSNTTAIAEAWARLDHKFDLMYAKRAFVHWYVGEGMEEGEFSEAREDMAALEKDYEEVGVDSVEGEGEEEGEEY
T1 sequence (A8K068 whole entry, chain 2 of 2, further chain): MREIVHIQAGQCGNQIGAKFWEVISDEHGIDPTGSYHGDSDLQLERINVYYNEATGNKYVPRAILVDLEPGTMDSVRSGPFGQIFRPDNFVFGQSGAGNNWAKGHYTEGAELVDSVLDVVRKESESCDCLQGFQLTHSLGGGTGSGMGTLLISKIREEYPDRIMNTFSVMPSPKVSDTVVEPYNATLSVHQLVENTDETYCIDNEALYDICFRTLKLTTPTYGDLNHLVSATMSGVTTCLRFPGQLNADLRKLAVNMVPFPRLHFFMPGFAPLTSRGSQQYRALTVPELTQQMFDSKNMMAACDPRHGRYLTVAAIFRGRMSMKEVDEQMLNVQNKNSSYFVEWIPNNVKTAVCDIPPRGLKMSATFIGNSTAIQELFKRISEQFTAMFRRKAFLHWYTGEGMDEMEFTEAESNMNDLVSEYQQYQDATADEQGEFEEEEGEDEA
dynamic microtubules growing from surface-immobilized GMPCPP seeds (polymer of alpha/beta-tubulin), sequence (chain, as listed by the source, chain 1 of 2): as the sequence (P68363 whole entry, chain 1 of 2) above
dynamic microtubules growing from surface-immobilized GMPCPP seeds (polymer of alpha/beta-tubulin), sequence (chain, as listed by the source, chain 2 of 2): as the sequence (A8K068 whole entry, chain 2 of 2, further chain) above

B1: Kin5_14GFP (dimeric kinesin-5 as Kin5_18 but with the neck linker shortened to 14 residues, GFP-tagged) (protein)
chain: MSSQNSFMASKKEDKGKNIQVVVRCRPFNQLERKASSHSVLECDSQRKEVYVRTGEVNDKLGKKTYTFDMVFGPAAKQIEVYRSVVCPILDEVIMGYNCTIFAYGQTGTGKTFTMEGERSSDEEFTWEQDPLAGIIPRTLHQIFEKLSENGTEFSVKVSLLEIYNEELFDLLSPSPDVGERLQMFDDPRNKRGVIIKGLEEISVHNKDEVYHILERGAARRKTASTLMNAYSSRSHSVFSVTIHMKETTVDGEELVKIGKLNLVDLAGSENIGRSGAVDKRAREAGNINQSLLTLGRVITALVERTPHIPYRESKLTRILQDSLGGRTKTSIIATVSPASINLEETVSTLDYANRAKSIMNKPEVNQKLTAEEWKRRYEKEKEKNARLKGKVEKLEIELARWRAGETVKAEEQINMEDLMEASTPNLEVEAAQTAAAEAALAAQRTALANMSASVAVNEQARLATECERLYQQLDDKDEEINQQSQYAEQLKEQVMEQEELIANARREYETLQSEMARIQQENESAKEEVKEVLQALEELAVNYDQKSQEIDNKNKDIDALNEELQQKQSVFNAASTELQQLKDM
modifications: not checked
For B1, the mean residence time at dynamic plus ends in assay [1] was 7.04 s. For the same molecule, the mean pause duration at plus ends in assay [2] was found to be 7.2 s. Moreover, in assay [3], the end duration at plus ends under crowded conditions was 2.61 s.
